Laboratory results as given in patent US20170253873A1.

Molecular target: phosphorylated Smad3 (pSmad3) (UniProt Q8BUN5)
Assay: cell-based or functional assay

Sequence of phosphorylated Smad3 (pSmad3) (Q8BUN5 2-425 limits assumed): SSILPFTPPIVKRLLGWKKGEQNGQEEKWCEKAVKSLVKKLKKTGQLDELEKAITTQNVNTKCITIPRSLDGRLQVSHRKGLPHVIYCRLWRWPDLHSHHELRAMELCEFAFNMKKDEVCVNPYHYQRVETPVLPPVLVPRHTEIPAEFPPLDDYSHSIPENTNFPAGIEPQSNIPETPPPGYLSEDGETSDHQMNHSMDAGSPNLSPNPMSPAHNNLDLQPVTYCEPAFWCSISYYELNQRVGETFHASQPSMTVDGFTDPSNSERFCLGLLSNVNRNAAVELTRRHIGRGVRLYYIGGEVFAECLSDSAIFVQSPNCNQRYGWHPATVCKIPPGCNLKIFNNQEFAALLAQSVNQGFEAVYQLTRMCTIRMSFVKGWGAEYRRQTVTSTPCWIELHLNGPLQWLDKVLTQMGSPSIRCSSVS

In the case of “TAT-SH3 (TAT-SNX9(SH3) fusion polypeptide containing the full length SH3 domain, amino acids 1 to 62) (from UniProt Q9Y5X1 1-62) (designed binder)”, the decrease in Smad3-dependent luciferase activity is reported as 70%.
